The values below come from patent US20110052582A1 (Hoffmann-La Roche, published 2011).

First the molecules themselves.
T1: Soluble CDCP1 extracellular domain (CDCP1-ECD) (SEQ ID NO:30) fused to Streptavidin Binding Protein (SBP) (human, UniProt Q9H5V8 30-663)
T1 construct: also called SBP-CDCP1-ECD
T1 sequence: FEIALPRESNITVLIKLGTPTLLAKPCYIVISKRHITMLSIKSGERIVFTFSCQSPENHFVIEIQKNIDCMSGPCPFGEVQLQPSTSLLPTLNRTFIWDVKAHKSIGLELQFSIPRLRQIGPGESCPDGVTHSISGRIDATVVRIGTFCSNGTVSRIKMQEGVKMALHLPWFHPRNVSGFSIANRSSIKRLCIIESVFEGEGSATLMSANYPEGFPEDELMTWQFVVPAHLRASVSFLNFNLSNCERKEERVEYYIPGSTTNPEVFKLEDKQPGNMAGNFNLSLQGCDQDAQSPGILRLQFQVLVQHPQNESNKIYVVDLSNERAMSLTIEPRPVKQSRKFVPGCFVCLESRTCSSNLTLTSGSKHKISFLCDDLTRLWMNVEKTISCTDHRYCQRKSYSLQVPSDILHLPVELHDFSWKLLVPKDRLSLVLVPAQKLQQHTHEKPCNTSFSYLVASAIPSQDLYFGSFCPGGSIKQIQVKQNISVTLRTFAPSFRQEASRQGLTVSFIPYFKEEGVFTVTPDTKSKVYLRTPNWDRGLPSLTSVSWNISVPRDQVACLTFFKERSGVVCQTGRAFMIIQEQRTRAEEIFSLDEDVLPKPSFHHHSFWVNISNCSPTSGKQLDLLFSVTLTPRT

B1: hHC4-K / hLC4-M (antibody, V domains shown)
VH: EVQLVESGGGLVKPGGSLRLSCAASGFTFNSYGMSWVRQAPGKGLEWVSSISSGGSYIYYADSVKGRFTISRDNAKNSLYLQMNSLRAEDTAVYYCARHPDYDGVWFAYWGQGTLVTVSS
VL: EIVLTQSPATLSLSPGERATMSCGASSSVFYLHWYQQKPGLAPRLWIYDTSKLASGIPDRFSGSGSGTDFTLTISRLEPEDFAVYYCQQWNSNPPTFGGGTKVEIK
B2: hHC4-b / hLC4-a (antibody, V domains shown)
VH: B1 VH with G33S, S35N
VL: B1 VL with M21L, G24S, A25V, L32V, L41Q, W46L, D59A, R76S
B3: hHC4-c / hLC4-J (antibody, V domains shown)
VH: B1 VH with K13Q, S49A, S50T, I58T, A61P
VL: B1 VL with L4M, G24R, L41Q, D59A, R76S, E78Q
B4: hHC4-c / hLC4-a (antibody, V domains shown)
VH: B1 VH with K13Q, S49A, S50T, I58T, A61P
VL: B1 VL with M21L, G24S, A25V, L32V, L41Q, W46L, D59A, R76S
B5: hHC4-a / hLC4-b (antibody, V domains shown)
VH: B1 VH with S50T, I58T, A61P
VL: B1 VL with M21L, G24S, A25V, L32V, L41Q, W46L, D59A, F70Y, R76S
B6: hHC4-d / hLC4-I (antibody, V domains shown)
VH: B1 VH with V5L, K13Q, S50T, I58T, A61P, A75S, S78T, R98K
VL: B1 VL with L4M, M21L, G24R, H33S, L41Q, D59A, R76S, E78Q
B7: hHC4-a / hLC4-d (antibody, V domains shown)
VH: B1 VH with S50T, I58T, A61P
VL: EIVMTQSPATLSVSPGERATLSCSVSSSVFYVHWYQQKPGQAPRLLIYDTSKLASGIPARFSGSGSGTEYTLTISSLQSEDFAVYYCQQWNSNPPTFGGGTKVEIK
B8: hHC4-c / hLC4-L (antibody, V domains shown)
VH: B1 VH with K13Q, S49A, S50T, I58T, A61P
VL: B1 VL with G24R, L41Q, D59A, R76S
B9: hHC4-b / hLC4-J (antibody, V domains shown)
VH: B1 VH with G33S, S35N
VL: B1 VL with L4M, G24R, L41Q, D59A, R76S, E78Q
B10: hHC4-c / hLC4-d (antibody, V domains shown)
VH: B1 VH with K13Q, S49A, S50T, I58T, A61P
VL: B7 VL
B11: hHC4-c / hLC4-M (antibody, V domains shown)
VH: B1 VH with K13Q, S49A, S50T, I58T, A61P
VL: B1 VL
B12: hHC4-a / hLC4-I (antibody, V domains shown)
VH: B1 VH with S50T, I58T, A61P
VL: B1 VL with L4M, M21L, G24R, H33S, L41Q, D59A, R76S, E78Q
B13: hHC4-a / hLC4-c (antibody, V domains shown)
VH: B1 VH with S50T, I58T, A61P
VL: B7 VL with Y70F
B14: hHC4-K / hLC4-a (antibody, V domains shown)
VH: B1 VH
VL: B7 VL with M4L, V13L, E69D, Y70F, Q78E, S79P
B15: hHC4-a / hLC4-M (antibody, V domains shown)
VH: B1 VH with S50T, I58T, A61P
VL: B1 VL
B16: hHC4-a / hLC4-L (antibody, V domains shown)
VH: B1 VH with S50T, I58T, A61P
VL: B1 VL with G24R, L41Q, D59A, R76S
B17: hHC4-b / hLC4-L2 (antibody, V domains shown)
VH: B1 VH with G33S, S35N
VL: B1 VL with G24S, A25V, L41Q, D59A, R76S
B18: hHC4-a / hLC4-L2 (antibody, V domains shown)
VH: B1 VH with S50T, I58T, A61P
VL: B1 VL with G24S, A25V, L41Q, D59A, R76S
B19: hHC4-c / hLC4-L2 (antibody, V domains shown)
VH: B1 VH with K13Q, S49A, S50T, I58T, A61P
VL: B1 VL with G24S, A25V, L41Q, D59A, R76S
B20: hHC4-c / hLC4-b (antibody, V domains shown)
VH: B1 VH with K13Q, S49A, S50T, I58T, A61P
VL: B7 VL with M4L, V13L, E69D, Q78E, S79P
B21: hHC4-b / hLC4-L (antibody, V domains shown)
VH: B1 VH with G33S, S35N
VL: B1 VL with G24R, L41Q, D59A, R76S
B22: hHC4-c / hLC4-c (antibody, V domains shown)
VH: B1 VH with K13Q, S49A, S50T, I58T, A61P
VL: B7 VL with Y70F
B23: hHC4-K / hLC4-c (antibody, V domains shown)
VH: B1 VH
VL: B7 VL with Y70F
B24: hHC4-b / hLC4-M (antibody, V domains shown)
VH: B1 VH with G33S, S35N
VL: B1 VL
B25: hHC4-b / hLC4-K (antibody, V domains shown)
VH: B1 VH with G33S, S35N
VL: B1 VL with M21L, G24R, L41Q, D59A, R76S
B26: hHC4-K / hLC4-b (antibody, V domains shown)
VH: B1 VH
VL: B7 VL with M4L, V13L, E69D, Q78E, S79P
B27: hHC4-b / hLC4-I (antibody, V domains shown)
VH: B1 VH with G33S, S35N
VL: B1 VL with L4M, M21L, G24R, H33S, L41Q, D59A, R76S, E78Q
B28: hHC4-c / hLC4-K (antibody, V domains shown)
VH: B1 VH with K13Q, S49A, S50T, I58T, A61P
VL: B1 VL with M21L, G24R, L41Q, D59A, R76S
B29: hHC4-c / hLC4-I (antibody, V domains shown)
VH: B1 VH with K13Q, S49A, S50T, I58T, A61P
VL: B1 VL with L4M, M21L, G24R, H33S, L41Q, D59A, R76S, E78Q
B30: hHC4-a / hLC4-a (antibody, V domains shown)
VH: B1 VH with S50T, I58T, A61P
VL: B7 VL with M4L, V13L, E69D, Y70F, Q78E, S79P
B31: hHC4-b / hLC4-b (antibody, V domains shown)
VH: B1 VH with G33S, S35N
VL: B7 VL with M4L, V13L, E69D, Q78E, S79P

Substitutions are numbered along the chain they refer to.

The target of the experiment is T1, Soluble CDCP1 extracellular domain …. The experiment can be described thus: ELISA on captured SBP-CDCP1-ECD, ratio relative to chimeric CUB4 (chHC4). In a few lines: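 Streptavidin plates coated overnight at 2–8° C with SBP-CDCP1-ECD HEK293 supernatant (1:15–1:40). Antibodies, undiluted or 12-step dilution, bound 90 min at room temperature; HRP anti-human IgG 1 h, ABTS read at 405/492 nm, signal expressed relative to chimeric chHC4 reference.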
On the technique in general: In an ELISA, binding on a coated surface is turned into a signal by an enzyme label.
In the case of B1, the relative binding ratio came out at 0.04.
Turning to B2, the binding result is “no binding”.
Take B3: the relative binding ratio stood at 0.42.
Still for that read-out and setting: the same measure for B4: 0.34; for B5: 0.36.
For the molecule B6, the binding result is reported as “no binding”.
Regarding B7, the relative binding ratio stood at 0.28.
Same read-out and setting: the same measure for B8: 0.45.
As for B9, the binding result is “no binding”.
As to B10, the relative binding ratio came out at 0.36.
On the same count and under the same terms, to B11 belongs 0.71.
As for B12, the binding result was “no binding”.
On to B13, for which the relative binding ratio was found to be 0.35.
As to B14, the binding result is listed as “no binding”.
B15: the relative binding ratio turned out to be 0.8.
As to B16, the relative binding ratio was 0.55.
With B17, the binding result is given as “no binding”.
For B18, the relative binding ratio was found to be 0.58.
Consider B19, for which the relative binding ratio was determined as 0.53.
The same measure, in the same setting: to B20 belongs 0.28.
As to B21, the binding result is listed as “no binding”.
As to B22, the relative binding ratio came out at 0.29.
Regarding B23, the binding result is reported as “no binding”.
On the same count and under the same terms, to B24 belongs “no binding”.
In the case of B25, the binding result is listed as “no binding”.
Still for that read-out and setting: to B26 belongs “no binding”; to B27, “no binding”.
With B28, the relative binding ratio was found to be 0.83.
In the case of B29, the binding result is reported as “no binding”.
As to B30, the relative binding ratio came out at 0.38.
With B31, the binding result was “no binding”.
